Source: publication PMC10899256, “TBC1D23 mediates Golgi-specific LKB1 signaling” (Nature Communications, 2024)
Positions count from the first letter of the chain named. Numbers in names are those of the source.

Key:
[1] = molecular target: T1, purified GST-TBC1D23 PH domain (545–684) (human, UniProt Q9NUY8-2 545-684); assay: pull-down; recombinant proteins: MBP or MBP-tagged LKB1 CRD-LFa held, purified GST-TBC1D23 PH as prey; same procedure as for GST-tagged proteins (50 mM Tris pH 8.0, 500 mM NaCl, 0.05% Triton X-100, 4 °C 1 h); settings: both partners purified
T1 construct: also called purified TBC1D23 PH

[2] = molecular target: T2, purified TBC1D23 PH domain (545–684) (human, UniProt Q9NUY8-2 545-684); assay: ITC; LKB1-LFa motif peptides (1.0 mM) titrated into TBC1D23 PH domain (50 µM) at 25 °C; 100 mM Tris pH 8.0, 500 mM NaCl, 5% v/v glycerol; settings: both partners purified
T2 construct: Used as prey for GST-tagged baits on glutathione beads and in ITC, so the GST was probably removed
T2 sequence (Q9NUY8 560-699): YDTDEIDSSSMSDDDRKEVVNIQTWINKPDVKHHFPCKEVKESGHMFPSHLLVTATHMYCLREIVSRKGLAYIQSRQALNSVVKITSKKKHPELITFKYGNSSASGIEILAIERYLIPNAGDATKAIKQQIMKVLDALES

T1 sequence (Q9NUY8 560-699): as above

B1: MBP-LKB1 CRD-LFa WT (domain or fragment, human, UniProt Q15831 347-433, looked up)
chain: ADEDEDLFDIEDDIIYTQDFTVPGQVPEEEASHNGQRRGLPKAVCMNGTEAAQLSTKSRAEGRAPNPARKACSASSKIRRLSACKQQ
notes: LKB1 (STK11) CRD, residues 347–433; also called LKB1 WT; LKB1 CRD (347–433)
binding result [1]: binds

B2: MBP-LKB1 CRD-LFa F354A (domain or fragment, human, UniProt Q15831 347-433, looked up)
chain: B1 chain with F8A
notes: LKB1 (STK11) CRD, residues 347–433, with F354A; also called LKB1 F354A
binding result [1]: binds

B3: MBP-LKB1 CRD-LFa F354L (domain or fragment, human, UniProt Q15831 347-433, looked up)
chain: B1 chain with F8L
notes: LKB1 (STK11) CRD, residues 347–433, with F354L (reported in Peutz–Jeghers patients, present in gnomAD); also called LKB1 F354L
binding result [1]: binds

B4: LKB1 LFa peptide WT (peptide)
peptide: GADEDEDLFDIEDDIIYTQD
notes: LKB1 (STK11) LFa motif peptide; also called LKB1-LFa motif peptide; LKB1-LFa WT
Ka [2]: 1.25e+06 M⁻¹ | Kd [2]: 800 nM | stoichiometry N [2]: 1

B5: LKB1 LFa peptide F354L (peptide)
peptide: GADEDEDLLDIEDDIIYTQD
notes: LKB1 (STK11) LFa motif peptide with F354L, a mutation reported in Peutz–Jeghers patients and present in gnomAD; also called LKB1 F354L; LKB1-LFa mutants
fold by which the affinity of LKB1 WT is higher [2]: ~3 fold

B6: LKB1 LFa peptide F354A (peptide)
peptide: GADEDEDLADIEDDIIYTQD
notes: LKB1 (STK11) LFa motif peptide with F354A; also called LKB1 F354A; LKB1-LFa mutants
fold by which the affinity of LKB1 WT is higher [2]: ~3 fold
